{"source": "the DeepSol protein solubility set", "data": [{"assay": "soluble on expression in E. coli; label from the status in PepcDB or PDB records", "values": [{"sequence": "MNILLAGGSGLIGQELVRGMGEEHHYTVLGRDKDAIQKIFTTKASSLSWDELNTQDASRFDAVINLCGVNIAISRWTPKIKEEIISSRVQTTENLLHWILQQNAKPRFYCANAVGIYGLQENGDATDLTEDTAINWEHPKDYLSEVGIRWQQALQKAEEAGLPVTSTRFGVVLKKGKGFLGKLYPSFICGLGSTIGDGRQYLSWIDSEDLVNAYRFLLNHPEITGPVNVTSPNPCMQREFAKAFAKSLHRPLLLWTPAFIIHLLFGEMGDCLINHGQKVKPKRLLEAGFEFKWPDIEKALKHQYSAILEHHHHHH", "soluble on expression in E. coli": "soluble"}, {"sequence": "MKAAAKRISDGVYWTGVLDWDLRNYHGYTLQGTTYNAYLVCGDEGVALIDNSYPGTFDELMARVEDALQQVGMERVDYIIQNHVEKDHSGVLVELHRRFPEAPIYCTEVAVKGLLKHYPSLREAEFMTVKTGDVLDLGGKTLTFLETPLLHWPDSMFTLLDEDGILFSNDAFGQHLCCPQRLDREIPEYILMDAARKFYANLITPLSKLVLKKFDEVKELGLLERIQMIAPSHGQIWTDPMKIIEAYTGWATGMVDERVTVIYDTMHGSTRKMAHAIAEGAMSEGVDVRVYCLHEDDRSEIVKDILESGAIALGAPTIYDEPYPSVGDLLMYLRGLKFNRTLTRKALVFGSMGGNGGATGTMKELLAEAGFDVACEEEVYYVPTGDELDACFEAGRKLAAEIRR", "soluble on expression in E. coli": "soluble"}, {"sequence": "MKLDLDAFRIQPGKKPNLAKRPTRIDPVYRSKGEYHELLANHVAELSKLQNVLYADNRYAILLIFQAMDAAGKDSAIKHVMSGVNPQGCQVYSFKHPSATELEHDFLWRTNCVLPERGRIGIFNRSYYEEVLVVRVHPEILEMQNIPHNLAHNGKVWDHRYRSIVSHEQHLHCNGTRIVKFYLHLSKEEQRKRFLERIDDPNKNWKFSTADLEERKFWDQYMEAYESCLQETSTKDSPWFAVPADDKKNARLIVSRIVLDTLESLNLKYPEPSPERRKELLDIRKRLENPENGK", "soluble on expression in E. coli": "not soluble"}, {"sequence": "MKIWSSEHVFGHPWDTVIKAAMRKYPNPMNPCVVGVDVLERSVDGCGRLHSLRLLSTEWGLPGLVRAILGANRTLTYIKERSVVDPAARKMELCSTNITLTNLVSVNERLVYTPHPENPEKTVLTQEAIITVKGISLGSYLESLMATTISSNAKKGWAAIEWIIEHSESAIS", "soluble on expression in E. coli": "not soluble"}, {"sequence": "MSTQSILTKPTEATAFQPDQVVRILETVLLTTPEPLSISDLKKLFEGNIDKKTLHESLTILSEKWHDSGINLVSVAGGWRFQSKPEMQVFLDRLNPQRPPRYSRAVMETLAIIAYRQPVTRGDIEEIRGVAVSTQIIKTLESRGWIETIGQRDIPGKPYLYATTRHFLDDLNLQSLEQLPSLDSFNSLDLSADEAESVDTDTTTIQESGEPASHEPTQLL", "soluble on expression in E. coli": "not soluble"}, {"sequence": "MGSDKIHHHHHHMDYDYIIVGAGAAGLSLAYHLGQSALADQTILIIDPNHTRQNDRTWCFWEVGDGPFEAVVSRRWEHLWLYDKHWSARMAIAPYRYKLIQGIDFYQFVDHWLAQRPNITRLQGSVDRLVELPEGVAAVVGGRQYTARYAFNSVYRPVPTPPGYHTWLQHFKGWVIKTPQPVFDAEAATFMDFRIPQAGDVRFGYVLPFDTCTALVEYTIFSPQLVSQTEYEIGLQRYIAEQLGIDRYEITHVEYGVIPMSDVPLPLRPSPHVLNIGTAGGMSKPSTGYTFQRIQRQTRQIVASLTKEGHPFYRQPLFNRHALMDSILLNVLDAGRTPGHRFFANLFRHNPIQRVLRFLDEETTIAEDIALMSTVEMMPFAIAALAVFWGRMSSLGRREWEMG", "soluble on expression in E. coli": "not soluble"}, {"sequence": "MRVLVLGGGVLGRAIAESLFGEFEVIVVEKDEVRVQTLAEKGLQVVQGDFSYTATLLKAHIEKADLIVITISDPEVIAKTLHVIQNNNKDAAVLLILPEDTSLEEIASIAKEKYDTDVKVDYVINPRSAIVRAVVDTIEKIGEKKNSMKLIEKLNEIKENTDTLLIVMHDNPDPDCMASASALSLIAQTVGLKTVIVYGGDITHHQNRAMVNILGMDFRKVSRGSYEIKRHSAIAIVDAQPNGNISILDDEDIAKVQIIIDHHQILQNLREKLPDNCFVDIRPEANSTSSILVEYLKSLEIPIDENLATALFYGMYIDTKKFSKLSKIDIKAIEFLSGHVDYDLLDKIEFPDISTETAEILARAILNRRIYKNVIISNVGFIANRDAIAEAADFLLRLEGITTVLVFGIVDDRIEISARTRDVRVNIGAIMKEAFGSLGSGGGHPQAGGARIPLGIFKLAKDKASLLRLVEEAITERFLEALGMREGT", "soluble on expression in E. coli": "not soluble"}, {"sequence": "MSLRFDFHTHTVFSDGELIPAELVRRARVLKHRAIAITDHADFSNYKELIEKTTIAKEELKKYWDDIIVIVGVELTHIPPKSIPKMAKKAKDLGAEIVVVHGETVVEPVEEKTNYYASISEDVDILAHPGFIDKETAENLKENDIFVEITSRRGHNITNGYVANIAREFGLKTLINTDTHAPEDLIDDEFAKKVGLGAGLTNKELENTLLHYPKELLKREGHHHHHH", "soluble on expression in E. coli": "soluble"}]}]}
